{
  "source": "paper PMC7530023",
  "target": "unmodified (unphosphorylated) recombinant tau, human 1N4R isoform (human)",
  "experiment": "thioflavin S fluorescence aggregation assay",
  "data": [
    {"substance": "unmodified (unphosphorylated) recombinant tau, human 1N4R isoform (natural protein)", "values": [
      {"measurement": "net increase of ThS fluorescence (9 μM tau) (units of ThS fluorescence)", "value": 41},
      {"measurement": "net increase of ThS fluorescence (18 μM tau) (units of ThS fluorescence)", "value": 54}
    ]}
  ]
}
